Measurements: the supplement of paper PMC7125110
± gives the standard error. This sample holds only a part of the variants without activity.

B1: glmS ribozyme (parent)
chain: AUAAAAGCGCCAGAACUACAGAAAUGUAGUUGACGAGGAGGAGGUUUAUCGAAUUUUCGGCGGAUGCCUCCAAA

Legend:
Conditions in all cases: with glucosamine-6-phosphate
[1] = variants of: B1; assay: self-cleavage kobs at 40 uM GlcN6P; higher = faster cleavage; RNA array
In short: (§1)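 Barcoded ribozyme variants on sequenced MiSeq chips were transcribed in situ by E. coli RNA polymerase and followed at 37 °C through a hybridised Cy3 probe. Glucosamine-6-phosphate at 40 μM to 10 mM in HEPES/KCl/Mg(OAc)2 buffer was flowed in, and tiles were imaged over ~14 h. Signals were normalised to baseline and to non-cleaving reference variants, and per-tile medians were fit to one- or two-exponential decays to give kobs. Weighted Michaelis–Menten fits across concentrations gave kcat and KM.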

[2] = variants of: B1; assay: self-cleavage kobs at 10000 uM GlcN6P; higher = faster cleavage; RNA array
In short: as §1

[3] = variants of: B1; assay: self-cleavage kobs at 640 uM GlcN6P; higher = faster cleavage; RNA array
In short: as §1

[4] = variants of: B1; assay: self-cleavage kobs at 2500 uM GlcN6P; higher = faster cleavage; RNA array
In short: as §1

[5] = variants of: B1; assay: self-cleavage kobs at 160 uM GlcN6P; higher = faster cleavage; RNA array
In short: as §1

Variant	self-cleavage kobs at 40 uM GlcN6P [1] [s⁻¹]	self-cleavage kobs at 10000 uM GlcN6P [2] [s⁻¹]	self-cleavage kobs at 640 uM GlcN6P [3] [s⁻¹]	self-cleavage kobs at 2500 uM GlcN6P [4] [s⁻¹]	self-cleavage kobs at 160 uM GlcN6P [5] [s⁻¹]
G13U C50G C61G G62A U65G C68U	9.2e-05 ± 3.1e-05	3.93e-05 ± 1.7e-05	–	–	–
A15G C50G C70U	5.62e-05 ± 1.6e-05	4.88e-05 ± 1.3e-05	0.000167 ± 3.8e-05	0.00023 ± 5.9e-05	–
G13A G43C U65G	< 1e-05	–	–	< 1e-05	–
G29C A33G G38A G40C G43C	< 1e-05	–	–	–	–
A15G C50A A64G	< 1e-05	–	–	–	–
G29C G41U U46C G62U	< 1e-05	< 1e-05	–	–	–
A14G A15U G37A	4.55e-05 ± 1.5e-05	0.00249 ± 0.00037	–	–	–
G29C A42C	< 1e-05	< 1e-05	< 1e-05	< 1e-05	–
C16A C34U	< 1e-05	–	< 1e-05	< 1e-05	< 1e-05
C16A C34A	< 1e-05	< 1e-05	< 1e-05	< 1e-05	< 1e-05
G29A C34A G40U G41C G44U U49G C50A C71U	< 1e-05	< 1e-05	–	–	–
G29A U47G	2.24e-05 ± 1.1e-05	0.000713 ± 0.00011	0.000161 ± 6.4e-05	–	–
A15C A39G	0.000398 ± 9.2e-05	0.013 ± 0.0025	0.00224 ± 0.00049	0.00476 ± 0.0014	–
A12G A36C	< 1e-05	–	< 1e-05	< 1e-05	< 1e-05
A14G U47G C58G C71U	4.07e-05 ± 2e-05	9.43e-05 ± 1.6e-05	–	–	–
C16U U30A G37A G40U U65A	< 1e-05	< 1e-05	–	–	–
G13A C50G C68G	7.03e-05 ± 1.5e-05	9.04e-05 ± 1.9e-05	–	0.000125 ± 2.6e-05	–
C16U A39C C68A	< 1e-05	< 1e-05	–	–	–
A14G U31A A36U A64G	< 1e-05	–	–	–	–
A15G G44U G51C A52G U56G	< 1e-05	–	< 1e-05	–	< 1e-05
C16G G59C	< 1e-05	< 1e-05	< 1e-05	< 1e-05	< 1e-05
G29A G59U G63A A64U	< 1e-05	< 1e-05	–	–	–
A12U G37C A53C U54A	< 1e-05	–	–	–	–
